For 132 substances, amyloid nucleation score results are on record in the supplement of paper PMC12042874.

The series is described as follows: amyloid nucleation score (Sup35N fusion, yeast selection) (log enrichment); library NNK3; higher = more nucleation; inactive = no reads after selection. In outline: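 Yeast lacking psi expressed peptides of 20 random codons fused to Sup35N, received 100 μM copper sulfate for 24 hours, and were then grown for 7 days at 30°C on medium lacking adenine and uracil. Illumina sequencing of input and output plasmid inserts provided the reads. Nucleation scores are DiMSum log enrichments of output over input, centred on the mode of non-aggregating sequences. Any sequence with under 100 input reads was excluded.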

± gives the uncertainty stated by the source.

LNYFR: the amyloid nucleation score entry is “inactive”.

In the case of TAGNWWNVCVNTFNRWRRLL, the amyloid nucleation score result was “inactive”.

SVYLGFIVGSVHPTHVISMR: the amyloid nucleation score entry is “inactive”.

TLRLLDTVMWHKLGGTRAMS: the amyloid nucleation score result was “inactive”.

For the substance IGAIYACRLFVRGLASFLTL, the amyloid nucleation score result was “inactive”.

Consider YNWIC, for which the amyloid nucleation score result is “inactive”.

As to LMMLCLSVGMMKRSAYRLFT, the amyloid nucleation score entry is “inactive”.

With KRVSTDAW, the amyloid nucleation score result is “inactive”.

Take PYESHDEGQGNATM: the amyloid nucleation score entry is “inactive”.

Take YGMWHHYFGDLTLSSRLNHV: the amyloid nucleation score entry was “inactive”.

Consider FVYSMKSCSYRDLGLNSYLL, for which the amyloid nucleation score result was “inactive”.

In the case of PVGRKLTTFRVNTCLLGYFK, the amyloid nucleation score result is “inactive”.

For KDFGRLLLN, the amyloid nucleation score result was “inactive”.

For LAAMWPFV, the amyloid nucleation score entry is “inactive”.

With PLSNNKVVWWYYL, the amyloid nucleation score entry is “inactive”.

For the substance LTMPWTAYCPFKCFLLRADS, the amyloid nucleation score entry was “inactive”.

Regarding EMAEAGTFEGYSLSVSVSAD, the amyloid nucleation score result was “inactive”.

As for ATLYNSVRLC, the amyloid nucleation score entry was “inactive”.

With SCFAVCHYESRLVYVTYSFL, the amyloid nucleation score entry was “inactive”.

AYEIQWIWPNAASTVKSVLA: the amyloid nucleation score result is “inactive”.

Consider GLANNYGQYRITSRAKLPRQ, for which the amyloid nucleation score result is “inactive”.

Turning to GECWAPVYDFWI, the amyloid nucleation score result was “inactive”.

Consider YVHFAN, for which the amyloid nucleation score entry is “inactive”.

As for AIRGMNAERNR, the amyloid nucleation score entry was “inactive”.

In the case of SGLSNRGCCIMSY, the amyloid nucleation score result was “inactive”.

Regarding TVTWDWNRSEEGRCYLLLWV, the amyloid nucleation score entry was “inactive”.

In the case of YSGKNLVRSTAGGAVKPVC, the amyloid nucleation score entry is “inactive”.

For LQRRYFGSRSLGTFARMFQH, the amyloid nucleation score entry is “inactive”.

For IVRSF, the amyloid nucleation score entry was “inactive”.

Turning to RRYHHFRRECWLVERRIVVF, the amyloid nucleation score result is “inactive”.

Turning to HPCPK, the amyloid nucleation score result is “inactive”.

Regarding RYVAVCSK, the amyloid nucleation score result was “inactive”.

In the case of QFDLAMMSVVCYVFFMYWFL, the amyloid nucleation score entry is “inactive”.

With LMFGVIMPITDDMFYGQESV, the amyloid nucleation score entry was “inactive”.

IGEILIVFALTRNTVVGYGF: the amyloid nucleation score result was “inactive”.

On to LIFGVIPCQPR, for which the amyloid nucleation score entry is “inactive”.

SFFFHSKSSGKTLNWSSDKA displayed an amyloid nucleation score of 0.956 ± 0.091.

For LCKQTSTTNLSGV, the amyloid nucleation score result is “inactive”.

Substance STIVGGSLCFPIASVTFNSC came in with an amyloid nucleation score of 2.2 ± 0.079.

As for VMIDRWRNASNWIMFISHYR, the amyloid nucleation score was -0.611 ± 0.98.

For the substance RLAGSFKLKSVYKGMLDYLA, the amyloid nucleation score stood at 0.819 ± 0.15.

For DLWAIGWGPFRVCSLLPWPL, the amyloid nucleation score entry is “inactive”.

For VSSMYVVIHGV, the amyloid nucleation score result was “inactive”.

With CQVGRKRLLYVFTGYK, the amyloid nucleation score entry is “inactive”.

For GFRKWKLIVD, the amyloid nucleation score result is “inactive”.

Turning to LKRYFI, the amyloid nucleation score result was “inactive”.

On to QGDRLENKTLQVLHEKARSR, for which the amyloid nucleation score entry was “inactive”.

On to FYLIRKTIFLGSISLVWYGV, for which the amyloid nucleation score entry is “inactive”.

For RLVPFTWGHIPG, the amyloid nucleation score result is “inactive”.

Take SLVNGAWLAVMNMSRCLWIF: the amyloid nucleation score entry was “inactive”.

Take TLLARFSPRLATTYSNAICG: the amyloid nucleation score entry is “inactive”.

In the case of VTLCVVEPDCWRIGG, the amyloid nucleation score result is “inactive”.

For the substance RSNGPLFQVVITYCVSLPLN, the amyloid nucleation score result is “inactive”.

For the substance IKFIERWYQFTYVHCLQVMG, the amyloid nucleation score was -0.247 ± 0.64.

In the case of SRRVNFLPVVFQHMTWLVLV, the amyloid nucleation score result was “inactive”.

On to CKCYYGTSDFCGVGFETASR, for which the amyloid nucleation score result was “inactive”.

With SLSLRWFVGCKGSDGSALQC, the amyloid nucleation score entry is “inactive”.

Regarding KYTNTACLSRASIGNMIGQF, the amyloid nucleation score result is “inactive”.

For the substance LCGCS, the amyloid nucleation score entry is “inactive”.

Regarding GGWLLSEGLC, the amyloid nucleation score entry was “inactive”.

For the substance DLRCHGYC, the amyloid nucleation score entry is “inactive”.

FNYMCNLNVCRNIILMTLEL came in with an amyloid nucleation score of 2.69 ± 0.07.

With IFPFFVSL, the amyloid nucleation score entry is “inactive”.

Turning to HLLPLYTKSIVGYTTNAIPN, the amyloid nucleation score result was “inactive”.

Consider QKEDFIVSLWYRVRLFDRNS, for which the amyloid nucleation score result was “inactive”.

QATVISRVYNWAGLSDCVVV: the amyloid nucleation score is 0.425 ± 0.47.

On to LERYWCTNRGFNRWMQAYKD, for which the amyloid nucleation score result is “inactive”.

In turn, TCCNQRFGVRWNIYYGSDVW registered an amyloid nucleation score of 0.742 ± 0.15.

In the case of SEVFFGSVPNDARDKLNTNP, the amyloid nucleation score result was “inactive”.

Substance GFYSLISQQQFVLNFNGYKM registered an amyloid nucleation score of 2.34 ± 0.086.

With WLRSVLLRVTLLNSWHSWVS, the amyloid nucleation score entry is “inactive”.

On to KSFLLPCFCRTLWTWMHRHA, for which the amyloid nucleation score came to 1.11 ± 0.14.

TSQGIYHVVCCSSSEFRTLG yielded an amyloid nucleation score of 2.48 ± 0.055.

For the substance FRFYLCDDFMCNVLHYQPRN, the amyloid nucleation score was 3.19 ± 0.073.

Take GNVIMLLVTLASGCIPLSSE: the amyloid nucleation score result is “inactive”.

With NWFTMSNFMFYRTFCFIYSS, the amyloid nucleation score entry is “inactive”.

Consider LCVVEIFTLIGSCCHSDLGW, for which the amyloid nucleation score stood at 0.914 ± 0.13.

Turning to ARLAYMYMEDGKCSTHRGKF, the amyloid nucleation score entry is “inactive”.

In the case of KYIIWLLDDSDLI, the amyloid nucleation score entry is “inactive”.

Turning to GTQRVAIEDSGVIR, the amyloid nucleation score entry is “inactive”.

For RLYAALMFSSVRLCACVALV, the amyloid nucleation score entry was “inactive”.

Take VFVLCSSLYEGFTYYRWISF: the amyloid nucleation score entry was “inactive”.

Regarding RSCVCTTESPLSMTGLRRVV, the amyloid nucleation score entry was “inactive”.

Turning to SCNVVLRFGAMIYTL, the amyloid nucleation score entry is “inactive”.

Turning to FVSSYNIENV, the amyloid nucleation score entry was “inactive”.

For the substance YNGLGMIVPMFLVHPLK, the amyloid nucleation score entry is “inactive”.

In the case of VACCAGFDNRAVLWGCANPI, the amyloid nucleation score entry is “inactive”.

IVSKW: the amyloid nucleation score result is “inactive”.

On to FVRGTVWKSTGDVMDAVPAT, for which the amyloid nucleation score result was “inactive”.

For the substance NPKSSPVVTFWGTGYFSAGV, the amyloid nucleation score result is “inactive”.

Consider SFCYN, for which the amyloid nucleation score entry is “inactive”.

For SYEGMTREPLYMVYMRGSTD, the amyloid nucleation score came to 1.16 ± 0.16.

NLVYLLLRLYMMTFYQQRCP: the amyloid nucleation score result was “inactive”.

CDIHLRIY: the amyloid nucleation score entry was “inactive”.

With ASMLLDKYFANLYELVLRVF, the amyloid nucleation score result was “inactive”.

On to VNCWLLAVFTASSATLHNTR, for which the amyloid nucleation score was 0.776 ± 0.14.

On to KWMGKNTKSG, for which the amyloid nucleation score result was “inactive”.

Turning to LDNVR, the amyloid nucleation score entry is “inactive”.

For the substance LPLFSLSTFFFVCVVCL, the amyloid nucleation score came to 0.464 ± 0.14.

In the case of FCMGLHSWNSNGRFCAVCTY, the amyloid nucleation score entry was “inactive”.

With RSLWALSPENRPLGKVS, the amyloid nucleation score entry is “inactive”.

In the case of VGSNTVM, the amyloid nucleation score is -0.572 ± 0.84.

Regarding WYYQVKMISVCSLIEGMWTS, the amyloid nucleation score entry is “inactive”.

With YDKCLQCARRHNSSILSPTG, the amyloid nucleation score result is “inactive”.

Substance TTFSLTLIGFNDSGVKLLM had an amyloid nucleation score of 2.21 ± 0.069.

In turn, YWYYGCGSVGFAIRPWMSGI returned an amyloid nucleation score of 1.58 ± 0.11.

For the substance SVLFMRRLYSRMA, the amyloid nucleation score entry was “inactive”.

LNIFTYMCVMALMCLEKITS had an amyloid nucleation score of 1.73 ± 0.11.

For SRSLLEAWDHGTHAGLHVWS, the amyloid nucleation score result was “inactive”.

As for SELRC, the amyloid nucleation score came out at 0.114 ± 0.44.

SNWVLACYKI: the amyloid nucleation score entry is “inactive”.

On to STMLSYAVWALDMVFSYKVY, for which the amyloid nucleation score was -0.509 ± 0.84.

The substance SSVWIFRWTICNWESKF showed an amyloid nucleation score of 2.45 ± 0.052.

Substance SDRIDNFAWINFCK returned an amyloid nucleation score of 0.831 ± 0.18.

With NHKEWWFTVYLTSGVVCDLG, the amyloid nucleation score result is “inactive”.

Regarding SDEKNKNVLGAYRVIMCVVY, the amyloid nucleation score entry was “inactive”.

Turning to LVLDCMIMGMIIDSWYWPLN, the amyloid nucleation score result was “inactive”.

For RCRCTFYCFRVL, the amyloid nucleation score entry was “inactive”.

Turning to STSNFYLWGKPNVLAGMR, the amyloid nucleation score entry is “inactive”.

Turning to NSLCKLGFFSMVKYV, the amyloid nucleation score entry is “inactive”.

IGDNCCIWMLDVHSVTLVSE yielded an amyloid nucleation score of 0.329 ± 0.2.

With CWWCCATGTHSSSYIGRGVH, the amyloid nucleation score turned out to be 0.844 ± 0.24.

Consider CTLQYWGKIIPNERSRSRIV, for which the amyloid nucleation score entry was “inactive”.

For TSVWVYTVPSFVGNDIDTS, the amyloid nucleation score entry is “inactive”.

NAHLRCMTTILGLFQTFGRG returned an amyloid nucleation score of 2.02 ± 0.063.

In the case of QQVVSLEGRRTKVTLTYQGS, the amyloid nucleation score stood at 1.04 ± 0.11.

For the substance LTWLYDDDVSKFRTLLKFRS, the amyloid nucleation score entry was “inactive”.

As for YGWIDRS, the amyloid nucleation score result was “inactive”.

For the substance FFALPDLALYNFFFCNPHYL, the amyloid nucleation score is 2.27 ± 0.064.

As to RAYMVGCYDCSSYLDPFSYS, the amyloid nucleation score result was “inactive”.

Regarding FLWLKHSQSHVRERL, the amyloid nucleation score result was “inactive”.

As for PVARRVMDYKAGSRV, the amyloid nucleation score entry was “inactive”.
